“And” between values parts separate entries of the source, which are not always exact repeats. Identical values can stand only once. Numbered stars: 1 amine (or outer) side, 2 acyl side, 3 side chain; on linkers, the order of the positions; unused ones are H or OH. Bridge positions count the residues as written; N and C are the ends. Square brackets hold non-standard residues; d marks the D form. Peptide text beside a SMILES is read from it. Nle(6-ylidene) = O=C([C@H](CCCC=[*:3])N[*:1])[*:2]; Gly(cPent) = N[C@H](C(=O)O)C1CCCC1; tBuAla = CC(C)(C)C[C@H](N)C(=O)O; Cha = N[C@@H](CC1CCCCC1)C(=O)O; Chg = N[C@H](C(=O)O)C1CCCCC1; R5 = C=CCCC[C@@](C)(N)C(=O)O; S5 = C=CCCC[C@](C)(N)C(=O)O
What was measured:
[1] = circular dichroism; details: 10 mM phosphate; pH 7.5; 25 °C; 50 uM
[2] = CD spectroscopy, percentage of helicity; format: physicochemical; details: CD at 222 nm, 10 mM phosphate buffer pH 7.5, 50 μM peptide, 25° C.
Procedure: The secondary structure of the peptides was then characterized by circular dichroism (DC) as described below.
The circular dichroism spectra were acquired on a Jasco J-810 and on a Chirascan spectropolarimeter. The samples were prepared in 10 mM phosphate buffer, pH 7.5, at a peptide concentration of 50 μM. Data were recorded at 25° C. by stepscan from 180 nm to 260 nm in a 0.1 cm pathlength quartz cell using 0.2 nm wavelength increments, 1 nm bandwidth and a response time of 0.5 sec. Each spectrum was an average of three measurements and was subtracted from buffer baseline. The data were converted to per residue molar ellipticity units [θ] (deg·cm2·dmol−1·residue−1) and smoothed using the Igor software. The percentage of helicity was calculated as it follows:
[formula] whereby CD222=molar ellipticity at 222 nm in [mdeg], N=number of amino acids in the peptide and C=peptide molar concentration [mol/l].

## CC[C@H](C)[C@@H]1NC(=O)[C@H](Cc2ccccc2)NC(=O)[C@@](C)(NC(=O)[C@@H](NC(=O)[C@H](CO)NC(=O)[C@]2(C)CCCC=CCCC[C@@](C)(NC(=O)[C@H](CCC(=O)O)NC(C)=O)C(=O)N[C@@H]([C@@H](C)CC)C(=O)N[C@@H](CC(N)=O)C(=O)N2)C2CCCC2)CCCC=CCCC[C@@](C)(C(=O)N[C@@H](CO)C(=O)N[C@@H](CC(=O)O)C(=O)N[C@@H](CCC(=O)O)C(=O)N[C@@H](CC(C)C)C(=O)N[C@@H](CC(C)C)C(=O)N[C@@H](Cc2c[nH]cn2)C(=O)N[C@@H](CC(N)=O)C(=O)N[C@H](C(N)=O)C(C)C)NC(=O)[C@H](CCCNC(=N)N)NC1=O [Peptide 4ca-var2] (Ac-E[R5]IN[S5]S[Gly(cPent)][S5]FIR[S5]SDELLHNV-NH2; staple 2-5, 8-12)
[1]
  helicity: 90.3%
[2]
  % helicity: 90.3%

## CC[C@H](C)[C@@H]1NC(=O)[C@H](Cc2ccccc2)NC(=O)[C@@](C)(NC(=O)[C@@H](NC(=O)[C@H](CO)NC(=O)[C@]2(C)CCCC=CCCC[C@@](C)(NC(=O)[C@H](CCC(=O)O)NC(C)=O)C(=O)N[C@@H]([C@@H](C)CC)C(=O)N[C@@H](CC(N)=O)C(=O)N2)C2CCCCC2)CCCC=CCCC[C@@](C)(C(=O)N[C@@H](CO)C(=O)N[C@@H](CC(=O)O)C(=O)N[C@@H](CCC(=O)O)C(=O)N[C@@H](CC(C)C)C(=O)N[C@@H](CC(C)C)C(=O)N[C@@H](Cc2c[nH]cn2)C(=O)N[C@@H](CC(N)=O)C(=O)N[C@H](C(N)=O)C(C)C)NC(=O)[C@H](CCCNC(=N)N)NC1=O [Peptide 4ca-var3] (Ac-E[R5]IN[S5]S[Chg][S5]FIR[S5]SDELLHNV-NH2; staple 2-5, 8-12)
[1]
  helicity: 91.4%
[2]
  % helicity: 91.4%

## CC[C@H](C)[C@@H]1NC(=O)[C@H](Cc2ccccc2)NC(=O)[C@@](C)(NC(=O)[C@H](CC(C)C)NC(=O)[C@H](CO)NC(=O)[C@]2(C)CCCC=CCCC[C@@](C)(NC(=O)[C@H](CCC(=O)O)NC(C)=O)C(=O)N[C@@H]([C@@H](C)CC)C(=O)N[C@@H](CC(N)=O)C(=O)N2)CCCC=CCCC[C@@](C)(C(=O)N[C@@H](CO)C(=O)N[C@@H](CC(=O)O)C(=O)N[C@@H](CCC(=O)O)C(=O)N[C@@H](CC2CCCCC2)C(=O)N[C@@H](CC(C)C)C(=O)N[C@@H](Cc2c[nH]cn2)C(=O)N[C@@H](CC(N)=O)C(=O)N[C@H](C(N)=O)C(C)C)NC(=O)[C@H](CCCNC(=N)N)NC1=O [Peptide 4ca-var7, E Xaa2 IN Xaa5 SL Xaa8 FIR Xaa12 SDE Xaa16LHNV] (Ac-E[R5]IN[S5]SL[S5]FIR[S5]SDE[Cha]LHNV-NH2; staple 2-5, 8-12)
[1]
  helicity: 91.4%
[2]
  % helicity: 91.4%

## CC[C@H](C)[C@@H]1NC(=O)[C@H](Cc2ccccc2)NC(=O)[C@@](C)(NC(=O)[C@H](CC(C)C)NC(=O)[C@H](CO)NC(=O)[C@]2(C)CCCC=CCCC[C@@](C)(NC(=O)[C@H](CCC(=O)O)NC(C)=O)C(=O)N[C@@H]([C@@H](C)CC)C(=O)N[C@@H](CCCNC(=N)N)C(=O)N2)CCCC=CCCC[C@@](C)(C(=O)N[C@@H](CO)C(=O)N[C@@H](CC(=O)O)C(=O)N[C@@H](CCC(=O)O)C(=O)N[C@@H](CC(C)(C)C)C(=O)N[C@@H](CC(C)C)C(=O)N[C@@H](Cc2c[nH]cn2)C(=O)N[C@@H](CC(N)=O)C(=O)N[C@H](C(N)=O)C(C)C)NC(=O)[C@H](CCCNC(=N)N)NC1=O [Peptide 4ca-var6, E Xaa2 IR Xaa5 SL Xaa8 FIR Xaa12 SDE Xaa16LHNV] (Ac-E[R5]IR[S5]SL[S5]FIR[S5]SDE[tBuAla]LHNV-NH2; staple 2-5, 8-12)
[1]
  helicity: 85.6%
[2]
  % helicity: 85.6%

## EQSLAFIRKSDELLHNV (comparative peptide 3) [non-stapled native comparative peptide, reference compound]
[2]
  % helicity: 5.9% and 6.6%

## EKINQSL Xaa8 FIR Xaa12 SD Xaa15 LLH Xaa19 V (Ac-EKINQSL[(S)‑2‑(4-pentenyl)glycine]FIR[(S)‑2‑(4-pentenyl)glycine]SD[(S)‑2‑(4-pentenyl)glycine]LLH[(S)‑2‑(4-pentenyl)glycine]V-NH2; staple 8-12, 15-19 (inferred); not fully specified; printed as EKINQSL Xaa8 FIR Xaa12 SD Xaa15 LLH Xaa19 V) [Peptide 4a2, Xaa8, Xaa12, Xaa15 and Xaa19 are (S)-2-(4-pentenyl)glycine; Formula (C7)]
[2]
  % helicity: 46%

## CC[C@H](C)[C@H](NC(=O)[C@H](CCCCN)NC(=O)[C@H](CCC(=O)O)NC(C)=O)C(=O)N[C@@H](CC(N)=O)C(=O)N[C@@H](CCC(N)=O)C(=O)N[C@@H](CO)C(=O)N[C@@H](CC(C)C)C(=O)N[C@H]1CCCC=CCCC[C@@H](C(=O)N[C@@H](CO)C(=O)N[C@@H](CC(=O)O)C(=O)N[C@H]2CCCC=CCCC[C@@H](C(=O)N[C@H](C(N)=O)C(C)C)NC(=O)[C@H](Cc3c[nH]cn3)NC(=O)[C@H](CC(C)C)NC(=O)[C@H](CC(C)C)NC2=O)NC(=O)[C@H](CCCNC(=N)N)NC(=O)[C@H]([C@@H](C)CC)NC(=O)[C@H](Cc2ccccc2)NC1=O (Ac-EKINQSL[Nle(6-ylidene)]FIR[Nle(6-ylidene)]SD[Nle(6-ylidene)]LLH[Nle(6-ylidene)]V-NH2; staple 8-12, 15-19)
[1]
  helicity: 46%

## CC[C@H](C)[C@@H]1NC(=O)[C@H](Cc2ccccc2)NC(=O)[C@@](C)(NC(=O)[C@H](CC(C)C)NC(=O)[C@H](CO)NC(=O)[C@]2(C)CCCC=CCCC[C@@](C)(NC(=O)[C@H](CCC(=O)O)NC(C)=O)C(=O)N[C@@H]([C@@H](C)CC)C(=O)N[C@@H](CCCCN)C(=O)N2)CCCC=CCCC[C@@](C)(C(=O)N[C@@H](CO)C(=O)N[C@@H](CC(=O)O)C(=O)N[C@@H](CCC(=O)O)C(=O)N[C@@H](CC(C)(C)C)C(=O)N[C@@H](CC(C)C)C(=O)N[C@@H](Cc2c[nH]cn2)C(=O)N[C@@H](CC(N)=O)C(=O)N[C@H](C(N)=O)C(C)C)NC(=O)[C@H](CCCNC(=N)N)NC1=O [Peptide 4ca-var5, E Xaa2 IK Xaa5 SL Xaa8 FIR Xaa12 SDE Xaa16LHNV] (Ac-E[R5]IK[S5]SL[S5]FIR[S5]SDE[tBuAla]LHNV-NH2; staple 2-5, 8-12)
[1]
  helicity: 82.3%
[2]
  % helicity: 82.3%

## EFPS X486 EFD X490 SI X493 QVN X497 KIN (EFPSXEFDXSIXQVNXKIN; not fully specified; (S)-2-(4-pentenyl)alanine residues, likely stapled; comparative peptide 1eg; (1)..(1) N-term acetylated; (5)..(5) (S)-2-(4-pentenyl)alanine; (9)..(9) (S)-2-(4-pentenyl)alanine; (12)..(12) (S)-2-(4-pentenyl)alanine; (16)..(16) (S)-2-(4-pentenyl)alanine; (19)..(19) C-term amidated) [comparative peptide; X486, X490, X493 and X497 are (S)-2-(4-pentenyl)alanine, reference compound]
[2]
  % helicity: 35.3%

## EKI Xaa4 Q A L Xaa8 FI Xaa11 KSD Xaa15 LLHNV (Ac-EKI[S5]QAL[S5]FI[S5]KSD[S5]LLHNV-NH2; staple 11-15, 4-8 (inferred)) [Peptide V4bb502]
[2]
  % helicity: 15%

## CC[C@H](C)[C@@H]1NC(=O)[C@H](Cc2ccccc2)NC(=O)[C@@](C)(NC(=O)[C@H](CC(C)(C)C)NC(=O)[C@H](CO)NC(=O)[C@]2(C)CCCC=CCCC[C@@](C)(NC(=O)[C@H](CCC(=O)O)NC(C)=O)C(=O)N[C@@H]([C@@H](C)CC)C(=O)N[C@@H](CC(N)=O)C(=O)N2)CCCC=CCCC[C@@](C)(C(=O)N[C@@H](CO)C(=O)N[C@@H](CC(=O)O)C(=O)N[C@@H](CCC(=O)O)C(=O)N[C@@H](CC(C)C)C(=O)N[C@@H](CC(C)C)C(=O)N[C@@H](Cc2c[nH]cn2)C(=O)N[C@@H](CC(N)=O)C(=O)N[C@H](C(N)=O)C(C)C)NC(=O)[C@H](CCCNC(=N)N)NC1=O [Peptide 4ca-var1] (Ac-E[R5]IN[S5]S[tBuAla][S5]FIR[S5]SDELLHNV-NH2; staple 2-5, 8-12)
[1]
  helicity: 89.3%
[2]
  % helicity: 89.3%

## Ac-FDASISQVNEKINQSLAFIRKSDELLHNVNAGKST-NH2 (N-terminus and C-terminus assumed) [Peptide T118, reference compound]
[2]
  % helicity: 23.4%

## EKA Xaa4 QSL Xaa8 FI Xaa11 KSD Xaa15 LLHNV (Ac-EKA[S5]QSL[S5]FI[S5]KSD[S5]LLHNV-NH2; staple 11-15, 4-8 (inferred)) [Peptide V4bb499]
[2]
  % helicity: 24%

## CC[C@H](C)[C@@H]1NC(=O)[C@H](Cc2ccccc2)NC(=O)[C@@](C)(NC(=O)[C@H](CC(C)C)NC(=O)[C@H](CO)NC(=O)[C@]2(C)CCCC=CCCC[C@@](C)(NC(C)=O)C(=O)N[C@@H]([C@@H](C)CC)C(=O)N[C@@H](CC(N)=O)C(=O)N2)CCCC=CCCC[C@@](C)(C(=O)N[C@@H](CO)C(=O)N[C@@H](CC(=O)O)C(=O)N[C@@H](CCC(=O)O)C(=O)N[C@@H](CC(C)C)C(=O)N[C@@H](CC(C)C)C(N)=O)NC(=O)[C@H](CCCNC(=N)N)NC1=O [Peptide 4ca16, X498 IN X501 SL X504 FIR X508 SDELL] (Ac-[R5]IN[S5]SL[S5]FIR[S5]SDELL-NH2; staple 1-4, 7-11)
[2]
  % helicity: >100%

## EKI Xaa4 A SL Xaa8 FI Xaa11 KSD Xaa15 LLHNV (Ac-EKI[S5]ASL[S5]FI[S5]KSD[S5]LLHNV-NH2; staple 11-15, 4-8 (inferred)) [Peptide V4bb501]
[2]
  % helicity: 12%

Reference: patent US11299518B2, “Fusion respiratory syncytial virus inhibitors and use thereof” (priority 2016, dated 2022)
